T1: endogenous α4 of the transfected human cell lines (HeLa, U373MG) (UniProt P78318 2-339)
T1 sequence (looked up): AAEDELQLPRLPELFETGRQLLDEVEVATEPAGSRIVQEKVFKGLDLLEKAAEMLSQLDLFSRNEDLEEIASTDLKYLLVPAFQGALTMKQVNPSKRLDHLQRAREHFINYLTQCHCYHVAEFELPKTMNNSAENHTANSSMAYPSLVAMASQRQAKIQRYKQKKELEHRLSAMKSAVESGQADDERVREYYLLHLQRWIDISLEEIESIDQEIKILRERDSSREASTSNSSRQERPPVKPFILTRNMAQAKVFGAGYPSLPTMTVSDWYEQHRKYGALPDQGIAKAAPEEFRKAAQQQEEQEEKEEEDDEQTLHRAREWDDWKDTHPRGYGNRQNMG

B1: MID1 B-box 1 (residues 110-165), yeast two-hybrid bait (other)
chain: TMTSAEKVLCQFCDQDPAQDAVKTCVTCEVSYCDECLKATHPNKKPFTGHRLIEPI
notes: also called BB1; isolated B-Box1; not shown: two-hybrid fusion partner; not described
B2: small part of α4 (44 amino acids), yeast two-hybrid deletion construct (peptide)
peptide: ERPPVKPFILTRNMAQAKVFGAGYPSLPTMTVSDWYEQHRKYGA
notes: The range 236-279 is inferred from the equal length of 44 residues; also called peptidic fragment of α4
B3: myc-tagged B-box 1 of the MID1 protein (peptide, not shown: small tags and cut ends)
peptide: TMTSAEKVLCQFCDQDPAQDAVKTCVTCEVSYCDECLKATHPNKKPFTGHRLIEPIPD
B4: α4 protein, full-length, in the yeast two-hybrid system (other, human, UniProt P78318 2-339, looked up)
chain: T1 sequence (looked up)
notes: mature; also called alpha4; IGBP1 gene product; not shown: two-hybrid fusion partner

The target in assay [1] is B4. The assay can be described thus: yeast two-hybrid, comparison of the α4-affinities of MID1 peptides.
Assay [2] deals with B1. As to the kind of experiment: yeast two-hybrid, deletion studies with α4 (preliminary data).
Assay [3] has as its target T1, endogenous α4 of the transfected human …. The assay can be described thus: cell-based or functional assay.
Another assay deals with T2, PARKIN (UniProt O60260 1-465, limits assumed).
T2 construct: Two-hybrid fusion protein; fusion partner not described
As to the kind of experiment: yeast two-hybrid, growth on his- leu- trp- plate.

For the next assay, the target named is T3, HHARI (UniProt Q9Y4X5 1-557, limits assumed).
T3 construct: Two-hybrid fusion protein; fusion partner not described
As to the kind of experiment: yeast two-hybrid, growth on his- leu- trp- plate.

T2 sequence (O60260 whole entry, the tested form may be a part): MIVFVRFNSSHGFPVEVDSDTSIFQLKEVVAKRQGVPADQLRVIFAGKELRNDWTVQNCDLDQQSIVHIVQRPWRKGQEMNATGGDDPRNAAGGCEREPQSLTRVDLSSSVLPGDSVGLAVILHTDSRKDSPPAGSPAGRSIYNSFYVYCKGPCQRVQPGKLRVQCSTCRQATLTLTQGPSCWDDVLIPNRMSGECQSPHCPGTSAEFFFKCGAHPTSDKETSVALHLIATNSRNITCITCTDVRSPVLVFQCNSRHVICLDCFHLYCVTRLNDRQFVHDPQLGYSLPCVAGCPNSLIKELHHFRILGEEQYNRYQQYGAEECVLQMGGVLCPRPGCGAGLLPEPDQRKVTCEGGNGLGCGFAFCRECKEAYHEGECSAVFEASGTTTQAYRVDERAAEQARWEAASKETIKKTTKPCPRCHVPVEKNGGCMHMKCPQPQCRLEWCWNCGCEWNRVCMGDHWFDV
T3 sequence (Q9Y4X5 whole entry, the tested form may be a part): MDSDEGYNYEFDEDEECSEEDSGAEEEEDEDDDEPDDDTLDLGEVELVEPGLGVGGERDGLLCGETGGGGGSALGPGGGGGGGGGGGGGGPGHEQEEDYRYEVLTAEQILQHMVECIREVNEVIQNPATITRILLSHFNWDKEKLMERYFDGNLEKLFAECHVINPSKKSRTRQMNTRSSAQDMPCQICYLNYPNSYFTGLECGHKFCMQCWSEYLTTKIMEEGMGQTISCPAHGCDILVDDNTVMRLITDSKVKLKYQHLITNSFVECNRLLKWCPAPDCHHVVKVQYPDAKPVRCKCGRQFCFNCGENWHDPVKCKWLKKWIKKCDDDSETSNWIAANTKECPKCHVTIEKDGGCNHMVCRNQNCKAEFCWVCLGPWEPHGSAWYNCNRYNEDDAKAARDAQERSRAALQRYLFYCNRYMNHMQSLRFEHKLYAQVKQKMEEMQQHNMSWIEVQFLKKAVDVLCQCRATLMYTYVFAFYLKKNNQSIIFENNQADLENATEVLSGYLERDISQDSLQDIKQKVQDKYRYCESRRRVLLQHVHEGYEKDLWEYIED

In the case of B1, the “fold increase of affinity for α4 compared to the full length MID1 protein” value in assay [1] came to 10 fold.

B2: the “strength of interaction relative to full-length α4” value in assay [2] is more than 10 times.

Take B3: in assay [3], the “ratio between phosphorylated and dephosphorylated hFused-form (western blot)” value was 3 ratio; the “ratio between phosphorylated and dephosphorylated hFused-form (western blot, repeat)” value worked out at 3 ratio.

Consider B4, for which the binding result in the assay with PARKIN and with HHARI was “no binding” throughout.

The record behind these values is patent US8202696 (MAX PLANCK GESELLSCHAFT ZUR FORDERUNG DER WISSENSCHAFTEN E V, dated 2012).
